Our source for the loss of the TFPIα-cofactor activity of protein S in the FXa inhibition assay (S2765 absorbance; 5 nM protein S, 2 nM FV-Short, 0.25 nM TFPIα, 0.3 nM FXa), inhibition of FXa by TFPIα (S2765 absorbance) with phospholipid vesicles and 2 nM FV-Short, protein S titrated and inhibition of FXa by TFPIα (S2765 absorbance) without added FV-Short values is patent US20210318338A1.

Common to all, as to experiment: cell-based or functional assay
The target in experiment [1] is protein S (purified, free form) (UniProt P07225).
For experiment [2] the target is unchanged. The source holds these as a separate data set.
Experiment [3] concerns the target tissue factor pathway inhibitor alpha (TFPIα) (UniProt P10646).

“And” between values parts separate entries of the source, which are not always exact repeats. Equal entries are not always repeated. Where two headings read alike, the source gives them in different places.

Chain of UniProt P10646 (P10646 29-304 limits assumed): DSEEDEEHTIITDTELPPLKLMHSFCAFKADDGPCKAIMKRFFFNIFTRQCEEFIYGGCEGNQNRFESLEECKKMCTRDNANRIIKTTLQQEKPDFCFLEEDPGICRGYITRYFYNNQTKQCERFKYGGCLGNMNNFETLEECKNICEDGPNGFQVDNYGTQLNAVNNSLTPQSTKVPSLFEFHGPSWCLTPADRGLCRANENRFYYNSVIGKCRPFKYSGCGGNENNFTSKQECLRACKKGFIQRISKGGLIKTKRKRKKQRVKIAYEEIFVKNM

As for “C4b-binding protein (C4BP) without bound protein S (from UniProt P04003 49-597; P20851 18-252)”, the loss of the TFPIα-cofactor activity of protein S in the FXa inhibition assay (S2765 absorbance; 5 nM protein S, 2 nM FV-Short, 0.25 nM TFPIα, 0.3 nM FXa) was 6.25 nM in experiment [1] and 3.13 nM in experiment [2].

B1: protein S (purified, free form) (protein, UniProt P07225 42-676, looked up)
chain: ANSLLEETKQGNLERECIEELCNKEEAREVFENDPETDYFYPKYLVCLRSFQTGLFTAARQSTNAYPDLRSCVNAIPDQCSPLPCNEDGYMSCKDGKASFTCTCKPGWQGEKCEFDINECKDPSNINGGCSQICDNTPGSYHCSCKNGFVMLSNKKDCKDVDECSLKPSICGTAVCKNIPGDFECECPEGYRYNLKSKSCEDIDECSENMCAQLCVNYPGGYTCYCDGKKGFKLAQDQKSCEVVSVCLPLNLDTKYELLYLAEQFAGVVLYLKFRLPEISRFSAEFDFRTYDSEGVILYAESIDHSAWLLIALRGGKIEVQLKNEHTSKITTGGDVINNGLWNMVSVEELEHSISIKIAKEAVMDINKPGPLFKPENGLLETKVYFAGFPRKVESELIKPINPRLDGCIRSWNLMKQGASGIKEIIQEKQNKHCLVTVEKGSYYPGSGIAQFHIDYNNVSSAEGWHVNVTLNIRPSTGTGVMLALVSGNNTVPFAVSLVDSTSEKSQDILLSVENTVIYRIQALSLCSDQQSHLEFRVNRNNLELSTPLKIETISHEDLQRQLAVLDKAMKAKVATYLGGLPDVPFSATPVNAFYNGCMEVNINGVQLDLDEAISKHNDIRAHSCPSVWKKTKNS
modifications: contains the modified amino acid gamma-carboxy glutamic acid (positions not given)
With B1, in experiment [3], the inhibition of FXa by TFPIα (S2765 absorbance) with phospholipid vesicles and 2 nM FV-Short, protein S titrated was 1.25 nM and 5 nM; the inhibition of FXa by TFPIα (S2765 absorbance) without added FV-Short is greater than 10 nM.
